Assay results published in patent US20210032299A1 (Eli Lilly, published 2021).
Starred links: 1 amine or outer side, 2 acyl side, 3 side chain; linkers in the order of their positions; H or OH if unused. Non-standard residues stand in square brackets, D forms with d. Groups on a side chain read outwards from the residue. No end group written: not given here. *: point of attachment. C20 diacid = O=C(O)CCCCCCCCCCCCCCCCCCC(=O)*; γGlu = O=C(O)[C@H](CCC(=O)[*:2])N[*:1]; 4Pal = N[C@@H](Cc1ccncc1)C(=O)O; αMeL = CC(C)C[C@](C)(N)C(=O)O; AEEA = NCCOCCOCC(=O)O; Aib = CC(C)(N)C(=O)O

T1: human glucose-dependent insulinotropic polypeptide (GIP) receptor (human, UniProt P48546 22-466)
T1 construct: whole, on cells; Assayed as crude membranes of stably transfected CHO cells; also called hGIPR; human GIP receptor
T1 sequence (looked up): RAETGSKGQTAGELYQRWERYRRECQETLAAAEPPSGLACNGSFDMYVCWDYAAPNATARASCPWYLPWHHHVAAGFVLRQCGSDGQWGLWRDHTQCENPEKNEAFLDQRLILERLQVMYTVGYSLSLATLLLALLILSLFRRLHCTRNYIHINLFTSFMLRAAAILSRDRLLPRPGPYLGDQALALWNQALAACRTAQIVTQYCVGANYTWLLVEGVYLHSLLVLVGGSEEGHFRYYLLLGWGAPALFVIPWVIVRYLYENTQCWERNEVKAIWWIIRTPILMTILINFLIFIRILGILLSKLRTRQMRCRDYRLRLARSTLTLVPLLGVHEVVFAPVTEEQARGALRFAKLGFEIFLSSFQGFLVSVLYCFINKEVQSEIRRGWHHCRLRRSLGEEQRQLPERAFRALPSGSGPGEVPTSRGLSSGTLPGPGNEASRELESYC


Tests used:
[1] = target: T1, human glucose-dependent insulinotropic …; test: SPA, displacement of [125I]-GIP from hGIPR membranes, 0.1% bacitracin
[2] = target: T2, human GLP-1 receptor (human, UniProt P43220 24-463); test: SPA, displacement of [125I]-GLP-1 from hGLP-1R membranes, 0.1% bacitracin
T2 construct: whole, on cells; Assayed as crude membranes of stably transfected HEK293 cells; also called hGLP1R; hGLP-1R
Procedure, shortened: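 Binding buffer: 25 mM HEPES pH 7.4, 2.5 mM CaCl₂, 1 mM MgCl₂, 0.1% bacitracin, 0.003% Tween-20, protease inhibitors without EDTA. Four-parameter nonlinear regression; Kᵢ given as geometric mean ± SEM, n = independent replicates run on different days.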

[3] = target: T3, human glucagon receptor (human, UniProt P47871 26-477); test: SPA, displacement of [125I]-Gcg from hGcgR membranes, 0.1% bacitracin
T3 construct: whole, on cells; Assayed as crude membranes of stably transfected HEK293 cells; also called hGcgR; GcgR
T3 sequence (P47871 26-477): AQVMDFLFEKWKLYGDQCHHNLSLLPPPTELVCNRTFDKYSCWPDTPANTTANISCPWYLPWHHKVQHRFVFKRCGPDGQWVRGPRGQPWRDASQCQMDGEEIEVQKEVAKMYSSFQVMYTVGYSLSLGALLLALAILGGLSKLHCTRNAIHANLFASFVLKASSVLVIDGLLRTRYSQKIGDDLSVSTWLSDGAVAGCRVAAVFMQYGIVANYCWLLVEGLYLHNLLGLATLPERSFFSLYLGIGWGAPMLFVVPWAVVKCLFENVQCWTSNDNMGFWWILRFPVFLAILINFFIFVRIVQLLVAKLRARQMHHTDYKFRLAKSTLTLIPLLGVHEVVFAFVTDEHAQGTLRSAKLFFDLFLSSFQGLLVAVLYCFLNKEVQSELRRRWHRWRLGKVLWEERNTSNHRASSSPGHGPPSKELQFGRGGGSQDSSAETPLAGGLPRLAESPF
Procedure: The binding buffer contains 25 mM 4-(2-hydroxyethyl)-1-piperazineethanesulfonic acid (HEPES), pH 7.4, 2.5 mM CaCl₂), 1 mM MgCl₂, 0.1% (w/v) bacitracin (Research Products), 0.003% (w/v) Polyoxyethylenesorbitan monolaurate (TWEEN®-20), and Roche Complete™ Protease Inhibitors without EDTA. […] Plates are sealed and mixed on a plate shaker (setting 6) for 1 minute and read with a PerkinElmer Trilux MicroBeta® scintillation counter after 12 hours of incubation/settling time at room temperature.
Data are analyzed using four-parameter (curve maximum, curve minimum, […], Hill slope) nonlinear regression routines (Genedata Screener, version 12.0.4, Genedata AG, Basal, Switzerland). […] Values for Kᵢ are reported as the geometric mean, with error expressed as the standard error of the mean (SEM) and n is equal to the number of independent replicates (determined in assays performed on different days).

| Binder | Ki [1] [nM] | Ki [2] [nM] | Ki [3] [nM] |
| --- | --- | --- | --- |
| Y[Aib]EGTFISDYSI[αMeL]LDKK([AEEA-AEEA-γGlu-C20 diacid])HQ[Aib]EFVE[4Pal]LLAGGPSSGAPPPS-NH2 (N-terminus assumed; SMILES CC[C@H](C)[C@H](NC(=O)[C@H](Cc1ccccc1)NC(=O)[C@@H](NC(=O)CNC(=O)[C@H](CCC(=O)O)NC(=O)C(C)(C)NC(=O)[C@@H](N)Cc1ccc(O)cc1)[C@@H](C)O)C(=O)N[C@@H](CO)C(=O)N[C@@H](CC(=O)O)C(=O)N[C@@H](Cc1ccc(O)cc1)C(=O)N[C@@H](CO)C(=O)N[C@H](C(=O)N[C@@](C)(CC(C)C)C(=O)N[C@@H](CC(C)C)C(=O)N[C@@H](CC(=O)O)C(=O)N[C@@H](CCCCN)C(=O)N[C@@H](CCCCNC(=O)COCCOCCNC(=O)COCCOCCNC(=O)CC[C@H](NC(=O)CCCCCCCCCCCCCCCCCCC(=O)O)C(=O)O)C(=O)N[C@@H](Cc1c[nH]cn1)C(=O)N[C@@H](CCC(N)=O)C(=O)NC(C)(C)C(=O)N[C@@H](CCC(=O)O)C(=O)N[C@@H](Cc1ccccc1)C(=O)N[C@H](C(=O)N[C@@H](CCC(=O)O)C(=O)N[C@@H](Cc1ccncc1)C(=O)N[C@@H](CC(C)C)C(=O)N[C@@H](CC(C)C)C(=O)N[C@@H](C)C(=O)NCC(=O)NCC(=O)N1CCC[C@H]1C(=O)N[C@@H](CO)C(=O)N[C@@H](CO)C(=O)NCC(=O)N[C@@H](C)C(=O)N1CCC[C@H]1C(=O)N1CCC[C@H]1C(=O)N1CCC[C@H]1C(=O)N[C@@H](CO)C(N)=O)C(C)C)[C@@H](C)CC) [Example 52] | 0.0372 | 128 | 114 |
| Y[Aib]EGTFISDYSI[αMeL]LDKK([AEEA-AEEA-γGlu-C20 diacid])HQ[Aib]EFVE[4Pal]LLAAGPSSGAPPPS-NH2 (N-terminus assumed; SMILES CC[C@H](C)[C@H](NC(=O)[C@H](Cc1ccccc1)NC(=O)[C@@H](NC(=O)CNC(=O)[C@H](CCC(=O)O)NC(=O)C(C)(C)NC(=O)[C@@H](N)Cc1ccc(O)cc1)[C@@H](C)O)C(=O)N[C@@H](CO)C(=O)N[C@@H](CC(=O)O)C(=O)N[C@@H](Cc1ccc(O)cc1)C(=O)N[C@@H](CO)C(=O)N[C@H](C(=O)N[C@@](C)(CC(C)C)C(=O)N[C@@H](CC(C)C)C(=O)N[C@@H](CC(=O)O)C(=O)N[C@@H](CCCCN)C(=O)N[C@@H](CCCCNC(=O)COCCOCCNC(=O)COCCOCCNC(=O)CC[C@H](NC(=O)CCCCCCCCCCCCCCCCCCC(=O)O)C(=O)O)C(=O)N[C@@H](Cc1c[nH]cn1)C(=O)N[C@@H](CCC(N)=O)C(=O)NC(C)(C)C(=O)N[C@@H](CCC(=O)O)C(=O)N[C@@H](Cc1ccccc1)C(=O)N[C@H](C(=O)N[C@@H](CCC(=O)O)C(=O)N[C@@H](Cc1ccncc1)C(=O)N[C@@H](CC(C)C)C(=O)N[C@@H](CC(C)C)C(=O)N[C@@H](C)C(=O)N[C@@H](C)C(=O)NCC(=O)N1CCC[C@H]1C(=O)N[C@@H](CO)C(=O)N[C@@H](CO)C(=O)NCC(=O)N[C@@H](C)C(=O)N1CCC[C@H]1C(=O)N1CCC[C@H]1C(=O)N1CCC[C@H]1C(=O)N[C@@H](CO)C(N)=O)C(C)C)[C@@H](C)CC) [Example 59] | 0.0148 | 109 | 230 |
| Y[Aib]EGTFISDYSI[αMeL]LDKK([AEEA-AEEA-γGlu-C20 diacid])HQ[Aib]EFVE[4Pal]LLATGPSSGAPPPS-NH2 (N-terminus assumed; SMILES CC[C@H](C)[C@H](NC(=O)[C@H](Cc1ccccc1)NC(=O)[C@@H](NC(=O)CNC(=O)[C@H](CCC(=O)O)NC(=O)C(C)(C)NC(=O)[C@@H](N)Cc1ccc(O)cc1)[C@@H](C)O)C(=O)N[C@@H](CO)C(=O)N[C@@H](CC(=O)O)C(=O)N[C@@H](Cc1ccc(O)cc1)C(=O)N[C@@H](CO)C(=O)N[C@H](C(=O)N[C@@](C)(CC(C)C)C(=O)N[C@@H](CC(C)C)C(=O)N[C@@H](CC(=O)O)C(=O)N[C@@H](CCCCN)C(=O)N[C@@H](CCCCNC(=O)COCCOCCNC(=O)COCCOCCNC(=O)CC[C@H](NC(=O)CCCCCCCCCCCCCCCCCCC(=O)O)C(=O)O)C(=O)N[C@@H](Cc1c[nH]cn1)C(=O)N[C@@H](CCC(N)=O)C(=O)NC(C)(C)C(=O)N[C@@H](CCC(=O)O)C(=O)N[C@@H](Cc1ccccc1)C(=O)N[C@H](C(=O)N[C@@H](CCC(=O)O)C(=O)N[C@@H](Cc1ccncc1)C(=O)N[C@@H](CC(C)C)C(=O)N[C@@H](CC(C)C)C(=O)N[C@@H](C)C(=O)N[C@H](C(=O)NCC(=O)N1CCC[C@H]1C(=O)N[C@@H](CO)C(=O)N[C@@H](CO)C(=O)NCC(=O)N[C@@H](C)C(=O)N1CCC[C@H]1C(=O)N1CCC[C@H]1C(=O)N1CCC[C@H]1C(=O)N[C@@H](CO)C(N)=O)[C@@H](C)O)C(C)C)[C@@H](C)CC) [Example 58] | 0.0324 | 459 | 418 |
| Y[Aib]EGTFISDYSI[αMeL]LDKK([AEEA-AEEA-γGlu-C20 diacid])HQ[Aib]EFVE[4Pal]LLAQGPSSGAPPPS-NH2 (N-terminus assumed; SMILES CC[C@H](C)[C@H](NC(=O)[C@H](Cc1ccccc1)NC(=O)[C@@H](NC(=O)CNC(=O)[C@H](CCC(=O)O)NC(=O)C(C)(C)NC(=O)[C@@H](N)Cc1ccc(O)cc1)[C@@H](C)O)C(=O)N[C@@H](CO)C(=O)N[C@@H](CC(=O)O)C(=O)N[C@@H](Cc1ccc(O)cc1)C(=O)N[C@@H](CO)C(=O)N[C@H](C(=O)N[C@@](C)(CC(C)C)C(=O)N[C@@H](CC(C)C)C(=O)N[C@@H](CC(=O)O)C(=O)N[C@@H](CCCCN)C(=O)N[C@@H](CCCCNC(=O)COCCOCCNC(=O)COCCOCCNC(=O)CC[C@H](NC(=O)CCCCCCCCCCCCCCCCCCC(=O)O)C(=O)O)C(=O)N[C@@H](Cc1c[nH]cn1)C(=O)N[C@@H](CCC(N)=O)C(=O)NC(C)(C)C(=O)N[C@@H](CCC(=O)O)C(=O)N[C@@H](Cc1ccccc1)C(=O)N[C@H](C(=O)N[C@@H](CCC(=O)O)C(=O)N[C@@H](Cc1ccncc1)C(=O)N[C@@H](CC(C)C)C(=O)N[C@@H](CC(C)C)C(=O)N[C@@H](C)C(=O)N[C@@H](CCC(N)=O)C(=O)NCC(=O)N1CCC[C@H]1C(=O)N[C@@H](CO)C(=O)N[C@@H](CO)C(=O)NCC(=O)N[C@@H](C)C(=O)N1CCC[C@H]1C(=O)N1CCC[C@H]1C(=O)N1CCC[C@H]1C(=O)N[C@@H](CO)C(N)=O)C(C)C)[C@@H](C)CC) [Example 57] | 0.0154 | 280 | 422 |
